The source of these data is publication PMC4443670, “The C-terminal region of the motor protein MCAK controls its structure and activity through a conformational switch” (eLife, 2015).

B7: His-MCAK_(S715E), full length (natural protein, human, UniProt Q99661 1-725, looked up)
chain: MAMDSSLQARLFPGLAIKIQRSNGLIHSANVRTVNLEKSCVSVEWAEGGATKGKEIDFDDVAAINPELLQLLPLHPKDNLPLQENVTIQKQKRRSVNSKIPAPKESLRSRSTRMSTVSELRITAQENDMEVELPAAANSRKQFSVPPAPTRPSCPAVAEIPLRMVSEEMEEQVHSIRGSSSANPVNSVRRKSCLVKEVEKMKNKREEKKAQNSEMRMKRAQEYDSSFPNWEFARMIKEFRATLECHPLTMTDPIEEHRICVCVRKRPLNKQELAKKEIDVISIPSKCLLLVHEPKLKVDLTKYLENQAFCFDFAFDETASNEVVYRFTARPLVQTIFEGGKATCFAYGQTGSGKTHTMGGDLSGKAQNASKGIYAMASRDVFLLKNQPCYRKLGLEVYVTFFEIYNGKLFDLLNKKAKLRVLEDGKQQVQVVGLQEHLVNSADDVIKMIDMGSACRTSGQTFANSNSSRSHACFQIILRAKGRMHGKFSLVDLAGNERGADTSSADRQTRMEGAEINKSLLALKECIRALGQNKAHTPFRESKLTQVLRDSFIGENSRTCMIATISPGISSCEYTLNTLRYADRVKELSPHSGPSGEQLIQMETEEMEACSNGALIPGNLSKEEEELSSQMSSFNEAMTQIRELEEKAMEELKEIIQQGPDWLELSEMTEQPDYDLETFVNKAESALAQQAKHFSALRDVIKALRLAMQLEEQAERQISSKKRPQ
notes: MCAK (Kif2c), human, residues 1-725, full length; also called full-length MCAK_(S715E); source: Sf9 (baculovirus), purified

The target in data set [1] is T1, His-MCAK motor region with the neck linker region (M) (human, UniProt Q99661 183-583).
T1 construct: MCAK (Kif2c), human, neck linker region and motor region; the methods state residues 183-583, the results state 181-583; Cloned in pET3aTr; also called motor domain; MCAK motor domain; source: E. coli BL21(DE3) Codon plus, purified (Ni-NTA, gel filtration)
Nature of the data set: pull-down; resin-based binding assay: GST-CT or GST-CT point mutants (GST as a control) on glutathione agarose beads; purified His-M, His-NM or cleaved CT domain added; Coomassie-stained gel. Particulars: both partners purified.

The target of data set [2] is T1, His-MCAK motor region with the neck …. As to the kind of experiment: SEC-MALS; motor domain with CT domain; Superdex 200 10/300 GL; 2 mg/ml in 100 mM HEPES, pH 7.2, 150 mM NaCl. Particulars: both partners purified. In general terms: In gel filtration, larger molecules generally elute earlier.
The target of data set [3] is B7. As to the kind of experiment: co-sedimentation; competition: 100 nM full-length MCAK_(S715E) with 2 μM taxol-stabilized microtubules and increasing concentration of cleaved free CT domain; western blot. Particulars: both partners purified. (A western blot detects proteins with antibodies after separation by electrophoresis.)
Data set [4] has as its target T1, His-MCAK motor region with the neck …. Nature of the data set: other fluorescence titration; intrinsic tryptophan/aromatic fluorescence (excitation 295 and 280 nm) of 1 μM motor domain, CT domain titrated 0 to 15,660 nM; 25°C; 100 mM HEPES, pH 7.4, 150 mM NaCl; motor pre-treated with EDTA to remove ADP. Particulars: both partners purified.
Data set [5] shares this target. Nature of the data set: SEC; analytical gel filtration of the motor with GST-CT_(E712C) under oxidizing conditions; fractions on Coomassie-stained SDS-PAGE. Particulars: both partners purified.
Data set [6] deals with the molecule itself. Nature of the data set: SEC; gel filtration of full-length MCAK proteins alone; elution compared with wild type full-length MCAK.

B1: GST-CT_(S715A) domain (domain or fragment, human, UniProt Q99661 700-725, looked up)
chain: VIKALRLAMQLEEQAARQISSKKRPQ
notes: MCAK (Kif2c) CT domain, human, residues 700-725 as stated (the printed primers of the parent encode 701-725); source: E. coli BL21(DE3) Codon plus, purified (glutathione-sepharose, gel filtration)
For B1, in data set [1], the binding result is reported as “binds”.

B2: GST-CT_(R716A) domain (domain or fragment, human, UniProt Q99661 700-725, looked up)
chain: VIKALRLAMQLEEQASAQISSKKRPQ
notes: as for B1
Turning to B2, the binding result in data set [1] was “binds”.

B3: GST-CT_(I718A) domain (domain or fragment, human, UniProt Q99661 700-725, looked up)
chain: VIKALRLAMQLEEQASRQASSKKRPQ
notes: as for B1
With B3, the binding result in data set [1] is recorded as “binds”.

B4: MCAK C-terminal tail (CT) domain, GST cleaved and removed (peptide, UniProt Q99661 700-725, looked up)
chain: VIKALRLAMQLEEQASRQISSKKRPQ
notes: MCAK (Kif2c) C-terminal tail (CT domain), human, residues 700-725 as stated; also called free CT domain; C terminus; source: E. coli BL21(DE3) Codon plus, purified as GST fusion, GST cleaved with GST-3C protease and removed
One may read the stoichiometry N as the number of molecules, sites or subunits per partner or assembly. What is called Kd is a measure of binding affinity in units of concentration. B4: in data set [2], the “stoichiometry N” value was 0.5 CT domain per motor domain. For the same molecule, the binding result in data set [3] was “binds”. Also, the dissociation constant (Kd) in data set [4] was ~1.1 µM.

B5: GST-CT_(E712C) domain (domain or fragment, human, UniProt Q99661 700-725, looked up)
chain: VIKALRLAMQLECQASRQISSKKRPQ
notes: MCAK (Kif2c) CT domain, human, residues 700-725 as stated (the printed primers of the parent encode 701-725); Designed to form a disulphide bridge with Cys287 of the motor domain without DTT; source: E. coli BL21(DE3) Codon plus, purified (glutathione-sepharose, gel filtration)
As for B5, the “stoichiometry N” value in data set [5] was 0.5 CT domain per motor.

B6: His-MCAK (1-725), full-length MCAK (natural protein, human, UniProt Q99661 1-725, looked up)
chain: MAMDSSLQARLFPGLAIKIQRSNGLIHSANVRTVNLEKSCVSVEWAEGGATKGKEIDFDDVAAINPELLQLLPLHPKDNLPLQENVTIQKQKRRSVNSKIPAPKESLRSRSTRMSTVSELRITAQENDMEVELPAAANSRKQFSVPPAPTRPSCPAVAEIPLRMVSEEMEEQVHSIRGSSSANPVNSVRRKSCLVKEVEKMKNKREEKKAQNSEMRMKRAQEYDSSFPNWEFARMIKEFRATLECHPLTMTDPIEEHRICVCVRKRPLNKQELAKKEIDVISIPSKCLLLVHEPKLKVDLTKYLENQAFCFDFAFDETASNEVVYRFTARPLVQTIFEGGKATCFAYGQTGSGKTHTMGGDLSGKAQNASKGIYAMASRDVFLLKNQPCYRKLGLEVYVTFFEIYNGKLFDLLNKKAKLRVLEDGKQQVQVVGLQEHLVNSADDVIKMIDMGSACRTSGQTFANSNSSRSHACFQIILRAKGRMHGKFSLVDLAGNERGADTSSADRQTRMEGAEINKSLLALKECIRALGQNKAHTPFRESKLTQVLRDSFIGENSRTCMIATISPGISSCEYTLNTLRYADRVKELSPHSGPSGEQLIQMETEEMEACSNGALIPGNLSKEEEELSSQMSSFNEAMTQIRELEEKAMEELKEIIQQGPDWLELSEMTEQPDYDLETFVNKAESALAQQAKHFSALRDVIKALRLAMQLEEQASRQISSKKRPQ
notes: MCAK (Kif2c), human, residues 1-725, full length; Cloned in the pFL vector; also called wild type MCAK; Kif2c; source: Sf9 (baculovirus), purified
With B6, the binding result in data set [6] is given as “binds”.

As to B7, the binding result in data set [6] is recorded as “binds”.

B8: His-MCAK_(E712C), full length (natural protein, human, UniProt Q99661 1-725, looked up)
chain: MAMDSSLQARLFPGLAIKIQRSNGLIHSANVRTVNLEKSCVSVEWAEGGATKGKEIDFDDVAAINPELLQLLPLHPKDNLPLQENVTIQKQKRRSVNSKIPAPKESLRSRSTRMSTVSELRITAQENDMEVELPAAANSRKQFSVPPAPTRPSCPAVAEIPLRMVSEEMEEQVHSIRGSSSANPVNSVRRKSCLVKEVEKMKNKREEKKAQNSEMRMKRAQEYDSSFPNWEFARMIKEFRATLECHPLTMTDPIEEHRICVCVRKRPLNKQELAKKEIDVISIPSKCLLLVHEPKLKVDLTKYLENQAFCFDFAFDETASNEVVYRFTARPLVQTIFEGGKATCFAYGQTGSGKTHTMGGDLSGKAQNASKGIYAMASRDVFLLKNQPCYRKLGLEVYVTFFEIYNGKLFDLLNKKAKLRVLEDGKQQVQVVGLQEHLVNSADDVIKMIDMGSACRTSGQTFANSNSSRSHACFQIILRAKGRMHGKFSLVDLAGNERGADTSSADRQTRMEGAEINKSLLALKECIRALGQNKAHTPFRESKLTQVLRDSFIGENSRTCMIATISPGISSCEYTLNTLRYADRVKELSPHSGPSGEQLIQMETEEMEACSNGALIPGNLSKEEEELSSQMSSFNEAMTQIRELEEKAMEELKEIIQQGPDWLELSEMTEQPDYDLETFVNKAESALAQQAKHFSALRDVIKALRLAMQLECQASRQISSKKRPQ
notes: MCAK (Kif2c), human, residues 1-725, full length; Without DTT a disulphide between Cys712 and Cys287 is intended; also called full-length MCAK_(E712C); source: Sf9 (baculovirus), purified
As for B8, in data set [6], the binding result is “binds”.
